Measured values as given in patent US20240254227A1 (Alector, published 2024).

Tests used:
Test in all cases: SPR (Carterra LSA), antibody immobilised
murine CD300C-Fc = target: T1, murine CD300C-Fc (mouse)
T1 construct: mouse IgG2a-Fc fusion (R&D Systems); the entry is the whole fusion chain; also called mCD300C; Mouse CD300C-Fc
T1 chain: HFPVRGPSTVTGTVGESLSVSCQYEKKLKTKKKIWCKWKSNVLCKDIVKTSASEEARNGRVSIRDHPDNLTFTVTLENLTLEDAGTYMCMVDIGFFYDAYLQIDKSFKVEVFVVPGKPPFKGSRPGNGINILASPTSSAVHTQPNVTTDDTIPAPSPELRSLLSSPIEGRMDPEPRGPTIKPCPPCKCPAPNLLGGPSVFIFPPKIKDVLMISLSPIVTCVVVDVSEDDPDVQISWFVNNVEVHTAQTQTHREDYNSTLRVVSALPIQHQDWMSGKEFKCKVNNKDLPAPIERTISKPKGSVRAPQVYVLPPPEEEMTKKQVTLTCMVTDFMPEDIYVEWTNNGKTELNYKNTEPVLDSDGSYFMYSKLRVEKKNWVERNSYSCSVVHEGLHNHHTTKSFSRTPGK
In short: (§1)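 Mouse anti-CD300LB IgG1 antibodies were amine-coupled in a 96-spot array on an HC200M chip; Fc-fused CD300 ectodomains (human on hIgG1-Fc) flowed over as analytes at 300 nM or 600 nM in HBS-TE with 0.5 mg/ml BSA, injected in series without regeneration, with kinetics fitted by high-throughput analysis.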

human CD300F-Fc = target: T2, human CD300F-Fc (human)
T2 construct: hIgG1-Fc fusion; the entry is the whole fusion chain
T2 chain: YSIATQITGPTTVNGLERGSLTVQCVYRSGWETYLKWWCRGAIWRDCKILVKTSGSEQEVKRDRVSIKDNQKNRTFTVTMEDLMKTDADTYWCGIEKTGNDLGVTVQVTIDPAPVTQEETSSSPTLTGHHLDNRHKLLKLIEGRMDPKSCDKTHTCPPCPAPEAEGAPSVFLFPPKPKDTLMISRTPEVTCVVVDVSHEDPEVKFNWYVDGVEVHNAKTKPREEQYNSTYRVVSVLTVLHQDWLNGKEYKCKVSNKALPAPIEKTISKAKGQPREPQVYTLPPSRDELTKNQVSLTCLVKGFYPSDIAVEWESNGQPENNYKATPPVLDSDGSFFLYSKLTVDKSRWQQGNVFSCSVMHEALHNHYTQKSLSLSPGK
In short: as §1

human CD300E-Fc = target: T3, human CD300E-Fc (human)
T3 construct: hIgG1-Fc fusion; the entry is the whole fusion chain
T3 chain: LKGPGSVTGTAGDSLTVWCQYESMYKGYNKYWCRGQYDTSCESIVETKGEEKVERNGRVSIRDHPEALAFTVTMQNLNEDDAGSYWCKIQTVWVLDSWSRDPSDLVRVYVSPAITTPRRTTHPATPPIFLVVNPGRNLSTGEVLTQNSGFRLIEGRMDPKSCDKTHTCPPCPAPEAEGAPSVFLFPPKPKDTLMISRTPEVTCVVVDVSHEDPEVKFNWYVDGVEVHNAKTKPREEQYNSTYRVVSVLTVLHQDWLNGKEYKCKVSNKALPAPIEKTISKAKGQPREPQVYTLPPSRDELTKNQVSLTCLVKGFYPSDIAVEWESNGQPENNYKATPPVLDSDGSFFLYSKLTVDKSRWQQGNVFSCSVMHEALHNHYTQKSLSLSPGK
In short: as §1

human CD300D-Fc = target: T4, human CD300D-Fc (human)
T4 construct: hIgG1-Fc fusion; the entry is the whole fusion chain
T4 chain: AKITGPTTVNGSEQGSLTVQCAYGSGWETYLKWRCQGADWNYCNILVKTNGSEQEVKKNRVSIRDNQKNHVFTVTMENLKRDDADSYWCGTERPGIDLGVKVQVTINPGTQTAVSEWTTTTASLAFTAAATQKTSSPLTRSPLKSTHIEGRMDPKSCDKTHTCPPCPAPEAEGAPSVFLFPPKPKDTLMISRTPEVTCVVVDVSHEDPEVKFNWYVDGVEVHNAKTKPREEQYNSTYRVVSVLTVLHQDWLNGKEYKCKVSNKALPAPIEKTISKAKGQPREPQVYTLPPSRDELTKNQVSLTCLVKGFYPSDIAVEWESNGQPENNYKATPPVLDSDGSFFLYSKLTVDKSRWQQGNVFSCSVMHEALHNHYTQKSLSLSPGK
In short: as §1

B1: anti-CD300LB antibody CD-12 (antibody, V domains shown)
VH: QIQLVQSGPELKKPGETVKISCKASGYTFTDYSMHWVRQAPGKGLKWMAWINTETGEATHADDFKGRFDFSLDTSASTAYLQIKNLKNEDTGIYFCVCYGSSYGMDYWGQGTSVTVSS
VL: DIVLTQSPASLPVSLGQRATISCRASKSVRTSGASYMHWYQQKPGQPPKLLIYLASNLKSGVPTRFSGSGSGTDFTLNIHPVEEEDAATYYCQHNREVPPTFGGGTKLEIK
Does B1 bind (murine CD300C-Fc)?
Result: no binding (tested: 300 nM or 600 nM)

B2: anti-CD300LB antibody CD-17 (antibody, V domains shown)
VH: QIQLVQSGPELKKPGETVKISCKASGYTLTDYSMHWVKQAPGKGLKWMGWINTETGEPRYGDDFKGRFAFSLETSASSAYLQINNLKNDDTATYFCATYGRSYGMDFWGQGTSVTVSS
VL: DIVLTQSPASLAVSLGQRATISCRASKSVSPSGHSYMHWYQQKPGQPPKLLIYLASNLKSGVPARFSGSGSGTDFTLNIHPVEEGDAATYYCQHNRELPPTFGGGSKLEIK
Does B2 bind (murine CD300C-Fc)?
Result: no binding (tested: 300 nM or 600 nM)

B3: anti-CD300LB antibody CD-02 (antibody, V domains shown)
VH: QVQLQQPGAELVRPGSSVKLSCQASGYTFTNYWMHWVRQRPIQGLEWIGNIDPSDSETHYNQKFKDRATLTVDKSSSTAYMQLSSLTSEDSAVYYCARSGVYDDEGGDYWGQGTTLTVSS
VL: ENVLTQSPAIMSASPGEKVTMTCSASSSVSYIHWYQQKSSTSPKLWIYDTSKLASGVPGRFSGSGSGNSYSLTISSMETEDVATYYCFQGSGYPLTFGAGTKLELK
Does B3 bind (human CD300F-Fc)?
Result: no binding (tested: 300 nM or 600 nM)

Does B3 bind (human CD300E-Fc)?
Result: no binding (tested: 300 nM or 600 nM)

Does B3 bind (human CD300D-Fc)?
Result: no binding (tested: 300 nM or 600 nM)

B4: anti-CD300LB antibody CD-05 (antibody, V domains shown)
VH: QVQLVQSGAEVKKPGASVKVSCKASGYTFSRYYINWVRQAPGQGLEWMGWINPNSGGTNYAQKFQGRVTMTRDTSTSTVYMELSSLRSEDTAVYYCTTDQLRFGKTGPYYGMDVWGQGTTVTVSS
VL: DIQMTQSPSSLSASVGDRVTITCRASQNIGTYLNWYQQKPGKAPKLLIYAASSLQSGVPSRFSGSGSGTDFTLTISSLQPEDFATYYCQQSYSDTLTFGGGTKVEIK
Does B4 bind (human CD300F-Fc)?
Result: no binding (tested: 300 nM or 600 nM)

Does B4 bind (human CD300E-Fc)?
Result: no binding (tested: 300 nM or 600 nM)

Does B4 bind (human CD300D-Fc)?
Result: no binding (tested: 300 nM or 600 nM)

B5: anti-CD300LB antibody CD-18 (antibody, V domains shown)
VH: DVQLQESGPDLVKPSQSLSLTCTVTGYSITSGYSWHWIRQFPDNKLEWMGYILSRGDTNFNPSLKSRISITRSTSNNQFFLHFNSVTTEDTATYYCARDFFDYWGQGTTLTVSS
VL: DVLMTQTPLSLPVSLGDQASISCRSSQSIVHSNGNTYLEWYLQKPGQSPKLLIYKVSDRFSGVPDRFSGSGSGTDFTLKISRVEAEDLGVYFCFQGSHVPYTFGGGTKLEIK
Does B5 bind (murine CD300C-Fc)?
Result: no binding (tested: 300 nM or 600 nM)

B6: anti-CD300LB antibody CD-03 (antibody, V domains shown)
VH: EVQLQQSGPELVKPGASVKISCKASGYTFTDYYINWVRQSHGKSLECIGDINPNNGGTNYNQKFKGKATLTVDRSSNTAYMEFRSLTFDDSALYYCAAEGAYWGQGTLVTVSA
VL: not shown
Does B6 bind (human CD300F-Fc)?
Result: no binding (tested: 300 nM or 600 nM)

Does B6 bind (human CD300E-Fc)?
Result: no binding (tested: 300 nM or 600 nM)

Does B6 bind (human CD300D-Fc)?
Result: no binding (tested: 300 nM or 600 nM)

B7: anti-CD300LB antibody CD-01 (antibody, V domains shown)
VH: RVQLQQSGAELVRPGASVTLSCKASGFTFTDFEMHWVKKTPVHGLEWIGAIDPESGNTAYNQKFRGKATLTADKSSSTAYMELRYLTSEDSAVYYCTPLISGADYWGQGTTLTVSS
VL: DVVMTQSPLSLPVSLGDQASISCRSSQSLVHSDGNTYLYWYLQKPGQSPKLLIYKVSNRFSGVPDRFSGSGSGTDFTFKISRVGAEDLGVYFCSQSTHVPWTFGGGTKLEII
Does B7 bind (human CD300F-Fc)?
Result: no binding (tested: 300 nM or 600 nM)

Does B7 bind (human CD300E-Fc)?
Result: no binding (tested: 300 nM or 600 nM)

Does B7 bind (human CD300D-Fc)?
Result: no binding (tested: 300 nM or 600 nM)
